Article PMC4958245

Target: recombinant Fc−ICAM-1 (human) (UniProt P05362)
Test: BLI; Octet QKe; DBLβ domains on an Fc−ICAM-1 probe; apparent Kd from double-reference-subtracted data of three concentrations, global 1:1 Langmuir fit

Sequence of UniProt P05362 (P05362 28-480): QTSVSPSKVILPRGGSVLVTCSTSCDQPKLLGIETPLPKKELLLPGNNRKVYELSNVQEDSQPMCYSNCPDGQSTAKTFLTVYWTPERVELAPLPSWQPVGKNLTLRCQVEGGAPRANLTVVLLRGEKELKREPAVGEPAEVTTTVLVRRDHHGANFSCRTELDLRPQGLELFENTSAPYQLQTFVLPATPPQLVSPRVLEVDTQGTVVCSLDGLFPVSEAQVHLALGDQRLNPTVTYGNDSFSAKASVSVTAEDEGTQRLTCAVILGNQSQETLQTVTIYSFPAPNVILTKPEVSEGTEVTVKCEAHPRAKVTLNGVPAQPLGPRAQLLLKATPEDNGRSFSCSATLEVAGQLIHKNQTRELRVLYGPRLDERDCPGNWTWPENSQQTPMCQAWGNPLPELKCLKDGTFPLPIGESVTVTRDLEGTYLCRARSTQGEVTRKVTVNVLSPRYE

IT4var07DBLβ1 (N726-C1211) (domain or fragment)
Kd: 8.7 nM
